According to patent publication US20140178293A1, “METHODS FOR IMAGING BONE PRECURSOR CELLS USING DUAL-LABELED IMAGING AGENTS TO DETECT MMP-9 POSITIVE CELLS” (BAYLOR COLLEGE OF MEDICINE, priority 2011, published 2014):
Like-named read-outs stand apart in the source and are kept apart here. Each block holds one molecule with its values, some of them ahead of it. Positions of bridges follow the written chain, without caps; N, C: chain ends. No end group written: not given here. *: point of attachment. DOTA = O=C(O)CN1CCN(CC(=O)O)CCN(CC(=O)*)CCN(CC(=O)O)CC1

What was measured:
[1] = in vitro stability of ^64Cu-M2 in PBS or 500-fold excess DTPA (radio-HPLC); type: physicochemical; settings: room temperature, normalized to 100% at t=0
Experimental: (§1) After radiolabeling, 150 μl of ^64Cu-M2 was diluted in equal volumes of PBS or DTPA solution and kept at room temperature. Aliquots were taken at 0, 2, 6 and 24 hrs post-incubation and analyzed by radio-HPLC. To evaluate serum stability, 150 μl of ^64Cu-M2 was added to 150 μl of 50% mouse serum and incubated at 37° C. An 80 μl aliquot was taken at each of the above-mentioned time points and added to 160 μl ice-cold acetonitrile. The samples were centrifuged at 14,000 g for 5 min and the supernatant was collected and analyzed by radio-HPLC.

in vitro = in vitro ADME; settings: mouse, serum
Experimental: as §1

MMP-9 [2] = biological target: T1, MMP-9 (Mus musculus, UniProt P41245)
T1 sequence (P41245 108-730): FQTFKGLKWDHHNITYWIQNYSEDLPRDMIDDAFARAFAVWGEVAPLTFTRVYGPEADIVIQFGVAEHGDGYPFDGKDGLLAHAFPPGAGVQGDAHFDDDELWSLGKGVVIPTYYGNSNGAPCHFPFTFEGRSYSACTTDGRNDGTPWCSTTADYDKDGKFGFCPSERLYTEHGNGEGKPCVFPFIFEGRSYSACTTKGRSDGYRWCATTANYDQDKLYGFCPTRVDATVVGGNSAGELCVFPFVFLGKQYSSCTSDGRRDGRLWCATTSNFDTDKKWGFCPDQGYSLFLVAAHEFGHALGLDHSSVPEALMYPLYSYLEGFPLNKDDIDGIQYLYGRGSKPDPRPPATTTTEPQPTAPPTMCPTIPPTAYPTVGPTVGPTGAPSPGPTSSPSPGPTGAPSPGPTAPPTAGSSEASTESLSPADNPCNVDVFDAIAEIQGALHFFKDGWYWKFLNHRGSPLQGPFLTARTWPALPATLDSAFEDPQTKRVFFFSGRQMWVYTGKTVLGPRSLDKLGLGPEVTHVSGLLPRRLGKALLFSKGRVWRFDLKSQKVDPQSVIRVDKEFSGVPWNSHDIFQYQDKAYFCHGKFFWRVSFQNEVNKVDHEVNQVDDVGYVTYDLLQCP

MMP-9 [3] = biological target: T1, MMP-9; assay: in vivo NIR fluorescence imaging of ^64Cu-M2 in murine model of BMP-2 induced HO; set-up: injected intramuscularly into each hind limb quadriceps muscle of nonobese diabetic/severely compromised immunodeficient (NOD/SCID) mice; from tissue; host or cells: hind limb muscle of living NOD/SCID mice injected with AdBMP2- or Adempty-transduced human fibroblasts
Experimental: NIR fluorescence images were acquired using custom-built fluorescence imaging systems (Houston et al., 2005) 18 hours after intravenous administration of ^64Cu-M2. Briefly, a field of view was illuminated with 785 nm of light from a laser diode, outfitted with a convex lens and diffuser to create a uniform excitation field. The fluorescence was collected through holographic and interference filters placed before a Nikon camera lens. The images were finally captured by an electron-multiplying charge-coupled device camera (PhotonMax 512; Princeton Instruments, Princeton, N.J.) with 200 to 400 milliseconds of integration time. For acquisition of white-light images, the optical filters were removed, and a low-power lamp illuminated the subject. Image acquisition was accomplished by V++ software (Aukland, New Zealand).

[4] = aqueous solution, 785/830 nm, used as standard; cited from earlier work
[5] = characterization of fluorescent properties; type: physicochemical
Experimental: Fluorescence intensity of the fluorophores was determined using the Fluorolog Tau-3 Spectrofluorometer (Horiba Jobin Yvon, Edison, N.J.) with excitation from a xenon arc lamp and absorbance was recorded using the DU-800 Spectrophotometer (Beckman Coulter, Brea Calif.). Fluorescence excitation and emission spectra were obtained at wavelengths of 785 and 830 nm respectively, with an integration time of 0.3 seconds for 1 μM solutions of IRDye 800CW, M2 and ^68Ga-M2 (n=4). Fluorescence measurements for IRDye 800CW and M2 were performed in aqueous solution under ambient conditions, whereas ^68Ga-M2 was prepared as previously described in NaOAc (pH 4) to provide an accurate representation of the ^68Ga-labeling scheme. Extinction coefficients were determined from the slope of absorbance at 785 nm as a function of the concentration of serial dilutions of each agent. Fluorescence quantum yield was determined by the comparative method of Williams et al. (Williams et al., 1983) using the quantum yield of ICGO (Φ=0.016) at 785/830 nm as a standard.

[6] = biological target: MMP-9 in mouse hind limb tissue (BMP-2 induced HO model, NOD/SCID mice) (mouse, UniProt P41245 108-730, limits assumed); assay: cell-based or functional assay
Sequence of MMP-9 in mouse hind limb tissue (BMP-2 induced HO model, NOD/SCID mice) (P41245 108-730 limits assumed): as the sequence (P41245 108-730) above

[7] = biological target: MMP-9 (AnaSpec, Fremont, Calif.) (UniProt P14780 107-707, limits assumed); assay: cell-based or functional assay
Sequence of MMP-9 (AnaSpec, Fremont, Calif.) (P14780 107-707 limits assumed): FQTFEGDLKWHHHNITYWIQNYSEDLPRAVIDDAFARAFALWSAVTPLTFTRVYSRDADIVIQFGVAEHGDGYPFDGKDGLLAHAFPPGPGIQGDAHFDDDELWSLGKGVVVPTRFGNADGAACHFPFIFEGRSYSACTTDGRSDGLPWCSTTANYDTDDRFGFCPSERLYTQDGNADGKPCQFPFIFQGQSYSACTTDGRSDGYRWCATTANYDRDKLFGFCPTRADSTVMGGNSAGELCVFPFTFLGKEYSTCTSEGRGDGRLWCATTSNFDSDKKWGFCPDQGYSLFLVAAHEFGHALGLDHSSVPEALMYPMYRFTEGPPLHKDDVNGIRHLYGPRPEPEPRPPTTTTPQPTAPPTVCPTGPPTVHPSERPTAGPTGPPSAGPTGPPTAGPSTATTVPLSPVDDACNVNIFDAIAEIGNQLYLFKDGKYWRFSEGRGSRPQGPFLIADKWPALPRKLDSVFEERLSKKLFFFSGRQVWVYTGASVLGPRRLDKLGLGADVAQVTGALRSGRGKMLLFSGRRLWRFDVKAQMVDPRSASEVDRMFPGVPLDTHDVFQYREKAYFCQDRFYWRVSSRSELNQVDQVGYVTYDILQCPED

[8] = 4 days post-implantation with 200x M1 as blocking (24 hours prior)
[9] = 1 μM solutions, IRDye 800CW and M2 aqueous, ^68Ga-M2 in NaOAc pH 4

Target/background ratio (PET/CT) (MMP-9 [2]; 2 days post-implantation, 200 μCi, 6 nmol i.v.): 3.29±0.9
Target/background ratio (PET/CT) (MMP-9 [2]; [8]): 1.44±0.66
Target/background ratio (PET/CT) (MMP-9 [2]; 4 days post-implantation, 200 μCi, 6 nmol i.v.): 4.02±1.39
Target/background ratio (PET/CT) (MMP-9 [2]; 6 days post-implantation, 200 μCi, 6 nmol i.v.): 3.41±0.51
Target/background ratio (NIR) (MMP-9 [3]; 2 days post-implantation, 18 hours after i.v. administration): 1.13 ± 0.03
Target/background ratio (NIR) (MMP-9 [3]; [8]): 1.13 ± 0.18
Target/background ratio (NIR) (MMP-9 [3]; 4 days post-implantation, 18 hours after i.v. administration): 1.24 ± 0.05
Target/background ratio (NIR) (MMP-9 [3]; 6 days post-implantation, 18 hours after i.v. administration): 1.10 ± 0.03
Molecule: CC(C)C[C@@H]1NC(=O)[C@H]([C@@H](C)O)NC(=O)[C@H](Cc2ccccc2)NC(=O)CNC(=O)[C@H](Cc2c[nH]c3ccccc23)NC(=O)[C@H](Cc2c[nH]cn2)NC(=O)[C@H](C)NC(=O)[C@@H](NC(=O)[C@H](CCCCNC(=O)CCCCC[N+]2=C(C=CC3=C(Oc4ccc(S(=O)(=O)O)cc4)C(=CC=C4N(CCCCS(=O)(=O)O)c5ccc(S(=O)(=O)O)cc5C4(C)C)CCC3)C(C)(C)c3cc(S(=O)(=O)[O-])ccc32)NC(=O)CN2CCN(CC(=O)O)CCN(CC(=O)O)CCN(CC(=O)O)CC2)CCCCNC(=O)C[C@@H](C(=O)O)NC1=O (single isomer, unassigned) [^64Cu-M2, metal not drawn]
percentage of intact component ([1]; DTPA, 2 hrs): 97.8 ± 1.3%
percentage of intact component ([1]; DTPA, 6 hrs): 97.7 ± 0.6%
percentage of intact component ([1]; DTPA, 24 hrs): 96.4±1.1%
percentage of intact component ([1]; PBS, 24 hrs): 98.9 ± 1.5%
remaining at 2 h (in vitro): 99.6 ± 0.6%
remaining at 6 h (in vitro): 94.8 ± 0.6%
remaining at 24 h (in vitro): 53.7 ± 3.7%
% injected dose/g (PET/CT) (MMP-9 [2]; NOD/SCID, mouse, in vivo, iv, 6 nmol): 0.61 ± 0.04 % injected dose/g
whole-body distribution (MMP-9 [2]; mouse, in vivo, iv): slow clearance from circulation along with uptake in the liver and kidneys

Molecule: CC1(C)C(/C=C/C=C/C=C/C=C2\N(CCCCS(=O)(=O)O)c3ccc4ccccc4c3C2(C)C)=[N+](CCCCS(=O)(=O)[O-])c2ccc3ccccc3c21 [ICG, indocyanine green]
quantum yield of standard [4]: 0.016

Emission maximum [5, 9]: 830 nm
Excitation wavelength [5, 9]: 785 nm
Quantum yield ([5]; 785/830 nm, relative to ICG (Φ=0.016)): 0.034
Extinction coefficient ([5]; absorbance at 785 nm, serial dilutions, mean ± SD (n=4)): 181,458 ± 2,189 M^−1cm^−1
Molecule: CC1(C)C(=CC=C2CCCC(C=CC3=[N+](CCCCCC(=O)[O-])c4ccc(S(=O)(=O)[O-])cc4C3(C)C)=C2Oc2ccc(S(=O)(=O)[O-])cc2)N(CCCCS(=O)(=O)[O-])c2ccc(S(=O)(=O)[O-])cc21.[Na+].[Na+].[Na+].[Na+] [IRDye 800CW, reference compound]

bone formation by μCT after blocking dose (MMP-9 [2]; 200-fold excess of M1, μCT after 7 days): still exhibited bone formation
Molecule: (lactam 2,10) DOTA-KKAHWGFTLD ({DOTA}-KKAHWGFTLD; lactam 2-10) [M1]

Target/background ratio (NIR), day 2 post-implantation [6]: 1.13 ratio
Target/background ratio (NIR), day 4 post-implantation [6]: 1.24 ratio
Target/background ratio (NIR), day 4 with 200x M1 as blocking [6]: 1.13 ratio
Target/background ratio (NIR), day 6 post-implantation [6]: 1.1 ratio
Target/background ratio (PET/CT), day 2 post-implantation [6]: 3.29 ratio
Target/background ratio (PET/CT), day 4 post-implantation [6]: 4.02 ratio
Target/background ratio (PET/CT), day 4 with 200x M1 as blocking [6]: 1.44 ratio
Target/background ratio (PET/CT), day 6 post-implantation [6]: 3.41 ratio
B1: ^64Cu-M2 (peptide)
peptide: {DOTA}-KKAHWGFTLD
modifications: lactam 2-10; also: DOTA chelating 64Cu, IRDye 800CW conjugated through a reactive amine group

inhibition of MMP-9 by gelatin zymography [7]: 10 fold decrease compared to M1
B2: dual-conjugate M2 (M1 conjugated with IRDye 800CW) (peptide)
peptide: {DOTA}-KKAHWGFTLD
modifications: lactam 2-10; also: IRDye 800CW conjugated through an amine, site not given here
